Results as given in patent CN112574312A (DONGDA BIOTECHNOLOGY SUZHOU CO LTD, dated 2021).
Each block holds one binder with its values, some of them ahead of it.

Assays:
人OX40 (Jurkat-OX40细胞) [1] = biological target: T1, 人OX40 (Jurkat-OX40细胞) (human, UniProt P43489 29-277); experiment: FACS on Jurkat-OX40 cells (Fig. 3)
T1 construct: whole, on cells; also called OX40受体; CD134
T1 sequence (looked up): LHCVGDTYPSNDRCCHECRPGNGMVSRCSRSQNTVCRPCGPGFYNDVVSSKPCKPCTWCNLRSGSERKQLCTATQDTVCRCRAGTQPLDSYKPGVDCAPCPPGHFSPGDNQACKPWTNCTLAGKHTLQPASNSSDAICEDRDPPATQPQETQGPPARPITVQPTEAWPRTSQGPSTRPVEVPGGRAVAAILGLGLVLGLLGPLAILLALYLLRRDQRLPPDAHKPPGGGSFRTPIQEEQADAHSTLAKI

[2] = biological target: T2, 人源OX40的胞外区与人Fc融合蛋白(OX40-hFc) (human, UniProt P43489 29-214); experiment: ELISA on coated OX40-hFc (Fig. 1)
T2 construct: extracellular domain; Coated on ELISA plates at 2 μg/mL; not shown: human Fc
T2 sequence (looked up): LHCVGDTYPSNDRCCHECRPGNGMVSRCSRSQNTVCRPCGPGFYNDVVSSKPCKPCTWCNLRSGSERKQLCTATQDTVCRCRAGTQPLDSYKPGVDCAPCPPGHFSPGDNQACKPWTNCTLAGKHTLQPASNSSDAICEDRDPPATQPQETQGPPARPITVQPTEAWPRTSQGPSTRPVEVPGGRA

人OX40 (Jurkat-OX40细胞) [3] = biological target: T1, 人OX40 (Jurkat-OX40细胞); experiment: FACS on Jurkat-OX40 cells (Fig. 9)
[4] = biological target: T3, 人源OX40的胞外区与小鼠Fc融合蛋白(OX40-ECD-mFc) (human, UniProt P43489 29-214); experiment: ELISA on OX40-mFc (Fig. 7)
T3 construct: extracellular domain; also called OX40-mFc; not shown: mouse Fc
T3 sequence (looked up): T2 sequence (looked up)

binding result (人OX40 (Jurkat-OX40细胞) [1]): binds
binding result [2]: binds
B1: 抗人OX40鼠源抗体3F5 (antibody, V domains shown)
VH: EVQLVESGGDLVRPGGSLKLSCAASGFTFGSYAMSWVRQSPEKRLEWVAEISSGGIYTYYADIVTGRFTTSRDNAKNTLYLEMSSLRSEDTAMYYCVRDFDYRFAYWGQGTLVTVSA
VL: DIQMTQTTSSLSASLGDRVTISCKSSQEISGYLAWLQQKPDGTVKRLIYAASSLDVGVPSRFSGSRSGSDYSLTISNLEPEDIATYYCFQYASYPYTFGGGTKLEIK
notes: Mouse hybridoma antibody purified by Protein A

binding result (人OX40 (Jurkat-OX40细胞) [1]): binds
binding result [2]: binds
B2: 抗人OX40鼠源抗体1G4 (antibody, V domains shown)
VH: RVQLVQSGPELKKPGETVKISCKASGYTFTDYSIHWVKQAPGKGLKWMGWINTETGESTYADDFKGRFVFSSEISATTAYLQINSLKNEDTSTYFCAWVPPWYFDVWGAGTTVTVSS
VL: DIVMTQSTTSLSVSLGDRVTINCRTSQDITNYLNWYQQKPDGTIKLLIYYTSMLKSGVPSRFSGSGSGTDYSLTISHLEQDDIATYFCQQGNTPPLTFGAGTKLELK
notes: as for B1

binding result (人OX40 (Jurkat-OX40细胞) [1]): binds
binding result [2]: binds
B3: 抗人OX40鼠源抗体3C9 (antibody, V domains shown)
VH: DVQLQQSGPELVKPGASVRMSCKASGYTFTSYIMHWVKQKPGQGLEWIGYINPYNGGSRYNDKFKVKATLASDKSSSTAYMELSSLTSADSAVYYCARGDYDDGAWFGYWGQGTLVTVSA
VL: EIQMTQAAPSVPVTPGESVSISCKSSQSLLHSNGITYLFWYLQRPGQSPQLLIYRMSNRASGVPDRFSSSGSGTAFTLKISRVEADDVGVYYCGQNLELPVTFGAGTKVELK
notes: as for B1

binding result (人OX40 (Jurkat-OX40细胞) [1]): binds
binding result [2]: binds
B4: 抗人OX40鼠源抗体9G7 (antibody, V domains shown)
VH: EVKLVESGGGLVQPGGSLKLSCAASGFTFSDYYMYWVRQTPEKRLEWVAYISNGDISTYYPDTVKGRFTISRDNAKNTLYLQMSRLKSEDTAMYYCARDDGYSAWFAYWGQGTLVTVSA
VL: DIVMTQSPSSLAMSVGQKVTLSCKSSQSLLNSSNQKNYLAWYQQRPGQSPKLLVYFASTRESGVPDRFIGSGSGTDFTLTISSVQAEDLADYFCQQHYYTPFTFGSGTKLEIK
notes: as for B1

binding result (人OX40 (Jurkat-OX40细胞) [3]): binds
binding result [4]: binds
B5: 抗人OX40人源化抗体15A7 (antibody, IgG1, V domains shown)
VH: QVQLQESGPGLVKPSETLSLTCTVSGYSITSDYWNWIRQPPGKGLEYMGYISYSGSTSYNPSLKSRITISRDTSKNQYSLKLSSVTAADTAVYYCARGGYYYGSSYPYYFDYWGQGTLVTVSS
VL: DIQMTQSPSTLSASVGDRVTITCKASQNVGTAVAWYQQKPGKAPKLLIYSPSNRYTGVPSRFSGSGSGTEFTLTISSLQPDDFATYYCQQYSSYRTFGGGTKVEIK
notes: expressed in 293 cells; also called hu15A7; hu15A7-hIgG1

binding result (人OX40 (Jurkat-OX40细胞) [1]): binds
binding result [2]: binds
B6: 抗人OX40鼠源抗体17C1 (antibody, V domains shown)
VH: DVQLQESGPGLVKPSQSLSLTCTVTGYSITSDYAWNWIRQFPGNKLEWMGYITYSGFTRYNPSLKSRFSITRDTSKNQFFLQLNSVTTEDTATYYCVYPAWFAYWGQGTLVTVSA
VL: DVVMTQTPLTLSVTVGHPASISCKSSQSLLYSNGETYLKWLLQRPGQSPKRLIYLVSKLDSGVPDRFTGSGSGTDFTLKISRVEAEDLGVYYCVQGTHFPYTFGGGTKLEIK
notes: as for B1

binding result (人OX40 (Jurkat-OX40细胞) [1]): binds
binding result [2]: binds
B7: 抗人OX40鼠源抗体3D9 (antibody, V domains shown)
VH: QVQLQESGPGLVAPSQSLSITCTVSGFSLTTYGITWVRQPPGKGLEWLGVIWDDGSTNYHSALISRLSISKNNYKSQVFLTLNSLQTDDTATYYCAKLLPYYFDSWGQGTTLTVSS
VL: DIVMTQSPSSLSASLGDRVTISCRASQDISNYLNWYQQKPNGTVKLLIYYTSRLLSGVPSRFSGSGSGTDYSLTISSLEQEDIATYFCQQGYTLPPTFGGGTKLEIK
notes: as for B1

binding result (人OX40 (Jurkat-OX40细胞) [3]): binds
binding result [4]: binds
B8: 抗人OX40人源化抗体1A2 (antibody, V domains shown)
VH: QVTLKESGPTLVKPTQTLTLTCTFSGFSLATSGVAVGWIRQPPGKALEWLAHIWWDDVKRYNPSLQGRLTITKDTSKNQVVLTMTNMDPVDTATYYCARMDWDGLAYWGQGTLVTVSS
VL: EIVLTQSPATLSLSPGERATLSCSVSSSISSSNLHWYQQKPGQAPRPWIYGTSNLATGIPARFSGSGSGTDYTLTISSLEPEDFAVYYCQQYSSYPFTFGGGTKVEIK
notes: expressed in 293 cells; also called hu1A2; 1A2人源化抗体

binding result (人OX40 (Jurkat-OX40细胞) [1]): binds
binding result [2]: binds
B9: 抗人OX40鼠源抗体15A7 (antibody, V domains shown)
VH: QVQLQQSGPGLAKPSQTLSLTCSVTGYSITSDYWNWIRKFPGNKLEYMGYISYSGSTSYNPSLKSRISITRDTSKNQYYLQLSSVTTEDTATYYCARGGYYYGSSYPYYFDYWGQGTTLTVSS
VL: DIVMTQSTKFMSTTVGDRVSITCKASQNVGTAVAWYQQKPGQSPKLLIYSPSNRYTGVPDRFTGSGSGTDFTLTITNVQSEDLADYFCQQYSSYRTFGGGTKLEIK
notes: as for B1

binding result (人OX40 (Jurkat-OX40细胞) [1]): binds
binding result [2]: binds
B10: 抗人OX40鼠源抗体1A2 (antibody, IgG1, V domains shown)
VH: EVQLKESGPGIVQPSQSLSLTCTFSGFSLATSGVAVGWIRQPSGKGLEWLAHIWWDDVKRYNPSLQGRLTISKDTASSQVFLKISSVDTADTATYYCARMDWDGLAYWGAGTTVTVSA
VL: EIVLTQSPALMAASPGEKVTITCSVSSSISSSNLHWYQQKSETSPKPWIYGTSNLATGVPVRFSGSGSGTSYSLTISSMEAEDAATYYCQQYSSYPFTFGGGTKLEIK
notes: Mouse hybridoma antibody purified by Protein A; also called 1A2-mIgG1

binding result (人OX40 (Jurkat-OX40细胞) [3]): binds
binding result [4]: binds
B11: 抗人OX40人源化抗体3F5 (antibody, IgG1, V domains shown)
VH: EVQLVESGGGLVQPGGSLRLSCAASGFTFGSYAMSWVRQAPGKGLEWVAEISSGGIYTYYADIVTGRFTTSRDNAKNSLYLQMNSLRAEDTAVYYCVRDFDYRFAYWGQGTLVTVSS
VL: DIQMTQSPSSLSASVGDRVTITCKSSQEISGYLAWLQQKPGKAPKRLIYAASSLDVGVPSRFSGSRSGSEYTLTISSLQPEDFATYYCFQYASYPYTFGQGTKLEIK
notes: expressed in 293 cells; also called hu3F5; hu3F5-hIgG1

binding result (人OX40 (Jurkat-OX40细胞) [3]): binds
binding result [4]: binds
B12: 抗人OX40人源化抗体3C9 (antibody, IgG1, V domains shown)
VH: QVQLVQSGAEVKKPGASVKVSCKASGYTFTSYIMHWVRQAPGQGLEWIGYINPYNGGSRYNDKFKVRATLTSDKSISTAYMELSRLRSDDTAVYYCARGDYDDGAWFGYWGQGTTVTVSS
VL: DIVMTQSPLSLPVTPGEPASISCKSSQSLLHSNGITYLFWYLQKPGQSPQLLIYRMSNRASGVPDRFSSSGSGTDFTLKISRVEAEDVGVYYCGQNLELPVTFGQGTKLEIK
notes: expressed in 293 cells; also called hu3C9; hu3C9-hIgG1
